Data taken from patent US12365905B2, “Host cells and methods for reducing isoprenoid precursors and isoprenoids by geranylgeranyl reductase” (The Regents of the University of California, priority 2018, dated 2025).

Tests used:
Type in all cases: biochemical
[1] = In vitro GGR reduction of geranylgeranyl pyrophosphate, products detected by LC-MS-TOF; set-up: key to GGPP (C20) reduction: +: activity detected; ++: activity higher than for other GGRs
Method: (§1) Validation of enzymatic substrate reduction was determined by incubating all assays in triplicate for each respective substrate and putative GGR for 1 hour at 37° C. All assays were performed at pH 7.4 in 100 mM sodium phosphate buffer containing 30-150 μM enzyme, 200 µM FAD (Sigma-Aldrich), and 65 mM sodium dithionite (Sigma-Aldrich). Standard assays for alcohol reduction were incubated with 100 μM enzyme and 500 μM (E,E)-farnesol (Alfa-Aesar) or (E,E,E)-geranylgeraniol (Sigma-Aldrich); pyrophosphate assays were performed at 100 μM FPP or GGPP (Sigma-Aldrich). Alcohol-based assays were quenched by liquid extraction using a 3:1 (v:v) LC-grade ethyl acetate solution containing 100 μM dodecanol as a GC internal standard (Sigma-Aldrich). The organic layer was extracted and stored at −20° C. until analysis by GC-MS. Pyrophosphate assays were similarly quenched using LC-grade n-butanol (Sigma-Aldrich) 1:1 (v:v) and centrifuged at 15000×g for 2 minutes. The n-butanol layer was dried for 45 minutes at ambient temperature using a Labconco speedvac, reconstituted in 25 µL of a 62:38 (v:v) acetonitrile/50 mM ammonium carbonate solution, and stored at −20° C. until further analysis by LC-MS-TOF [33]. Characterization of enzymatic hydrolysis of isoprenoid pyrophosphate substrates by SaGGR and PfGGR was performed by quenching the enzyme reactions at 0, 2, 5, 10, 20, 40, and 60 minutes of incubation.
The separation of FPP, GGPP, and their reduced forms was conducted on a ZIC-pHILIC column (150 mm length, 2.1 mm internal diameter, and 5 μm particle size, Merck) using an Agilent Technologies 1200 Series Rapid Resolution high performance liquid chromatography (HPLC) system. Solvents for HPLC were purchased from HoneyWell and were of HPLC grade or higher. The mobile phases used for this analysis were A) 50 mM ammonium carbonate (Fluka, 30-33% NH3 basis) in water and B) acetonitrile. Analytes were eluted isocratically with a mobile phase composition of 62% B at a flow rate of 0.2 mL/min. The total run time of the method was 6.5 min. The temperature of the sample tray was maintained at 6° C. using an Agilent FC/ALS Thermostat. […]
(§2) Data acquisition and processing were performed by the Agilent Technologies MassHunter software package. Product formation was determined using extracted ion chromatogram abundances (±0.02 Da) for each molecule's [M-H]^− mass (Table 4). […] Relative reductase reactivity among GGRs was determined by measuring the fractional abundance of singly-, doubly-, or triply-reduced products to the total ion abundance present for intact and hydrolyzed moieties. Integrated areas for hydrolyzed monophosphate products were assumed to have the same ionization intensities as their pyrophosphate counterparts, as determined by their standard curves measured from 0-120 μM (FIG. 15).

[2] = GGR reduction of geranyl pyrophosphate; set-up: key to GPP (C10) reduction: +: activity detected; ++: activity higher than for other GGRs
[3] = In vitro GGR reduction of geranylgeraniol, products analysed by GC-MS; set-up: key to Geranylgeraniol (C20) reduction: +: activity detected; ++: activity higher than for other GGRs
Method: as §1
(§3) Product identification and quantification of farnesol and hydrofarnesol derivatives were modified from previous detection methods. All GC-MS analyses were determined using an Agilent 6890 gas chromatography instrument coupled to an Agilent 5973 mass selective detector. 1 µL of extracted samples were injected in splitless mode onto an Agilent CycloSil-B column, with helium used as a carrier gas flowing at 1.0 mL/min. Following injection, the oven was held at 50° C. for 30 seconds, then increased to 175° C. at 35° C./min. Farnesol and hydrofarnesols were resolved by increasing the temperature 4° C./min up to 200° C., then increased to 300° C. at a rate of 35° C./min where it was held for 1.5 minutes. Geranylgeraniol and its hydrogenated derivatives were analyzed using the same injection method. After injection, the oven was held at 50° C. for 30 seconds then increased to 235° C. at 35° C./min. Hydrogeranylgeraniols were separated by increasing the oven temperature 4° C./min to 250° C., then ramped to 300° C. at a rate of 35° C./min where it was held for 1.5 minutes.
(§4) The EI-MS detection was initiated after a solvent delay of 5.0 minutes. Detection and classification of hydrofarnesols was performed in scan mode at 9.8 scans/sec ranging from 50-250 m/z in positive ion mode. For geranylgeraniol, the same scan parameters were implemented except for the mass range, which was expanded to 50-300 m/z in positive ion mode. The electron multiplier voltage was set to a gain factor of 1, with the MS ion source and quadrupole set to 230° C. and 150° C., respectively.
(§5) Total ion chromatograms (TIC) were integrated using Agilent Technologies Masshunter software, version 6. Product formation was determined from the TIC area for C15 or C20 alcohol products eluting at each respective retention time. Absolute product concentrations were determined from standard curves (0-200 μM) of either farnesol or geranylgeraniol assuming the TIC area of each reduced product ionizes with an equivalent efficiency to that of the unreduced substrate (FIG. 10). Subsequently, enzyme turnover numbers for isoprenoid reduction were calculated as the total number of nanomoles of prenyl units reduced per milligram of enzyme in 1 hr.

[4] = GGR reduction of geraniol; settings: FIG. 1A legend, conditions not stated
[5] = In vitro GGR reduction of farnesyl pyrophosphate, products detected by LC-MS-TOF; set-up: key to FPP (C15) reduction: +: activity detected; ++: activity higher than for other GGRs
Method: as §1, with “[…] […]” for “Validation of enzymatic substrate reduction was determined by incubating all assays in triplicate for each respective substrate and putative GGR for 1 hour at 37° C. All assays were performed at pH 7.4 in 100 mM sodium phosphate buffer containing 30-150 μM enzyme, 200 µM FAD (Sigma-Aldrich), and 65 mM sodium dithionite (Sigma-Aldrich).”
The separation of FPP, GGPP, and their reduced forms was conducted on a ZIC-pHILIC column (150 mm length, 2.1 mm internal diameter, and 5 μm particle size, Merck) using an Agilent Technologies 1200 Series Rapid Resolution high performance liquid chromatography (HPLC) system. Solvents for HPLC were purchased from HoneyWell and were of HPLC grade or higher. The mobile phases used for this analysis were A) 50 mM ammonium carbonate (Fluka, 30-33% NH3 basis) in water and B) acetonitrile. Analytes were eluted isocratically with a mobile phase composition of 62% B at a flow rate of 0.2 mL/min. The total run time of the method was 6.5 min. The temperature of the sample tray was maintained at 6° C. using an Agilent FC/ALS Thermostat. The column compartment was set to 40° C. A sample injection volume of 2 μL was used throughout.
The HPLC system was coupled to an Agilent Technologies 6210 time-of-flight mass spectrometer (LC-TOF-MS) by a ⅓post-column split. Contact between both instrument set-ups was established using a LAN card in order to trigger the MS into operation upon the initiation of a run cycle from the MassHunter workstation (Agilent Technologies). Electrospray ionization (ESI) was conducted in the negative ion mode and a capillary voltage of −3500 V was utilized. MS experiments were carried out in full scan mode, at 0.86 spectra/second for the detection of [M-H]^− ions. The instrument was tuned for a range of 50-1700 m/z. Prior to LC-TOF-MS analysis, the TOF-MS was calibrated via an ESI-L low concentration tuning mix (Agilent Technologies).
as §2

[6] = GGR-mediated hydrolysis of prenyl pyrophosphates to monophosphates, time course by LC-MS-TOF; settings: standard assay as a function of time, 0-60 minutes
Method: Validation of enzymatic substrate reduction was determined by incubating all assays in triplicate for each respective substrate and putative GGR for 1 hour at 37° C. All assays were performed at pH 7.4 in 100 mM sodium phosphate buffer containing 30-150 μM enzyme, 200 µM FAD (Sigma-Aldrich), and 65 mM sodium dithionite (Sigma-Aldrich). Standard assays for alcohol reduction were incubated with 100 μM enzyme and 500 μM (E,E)-farnesol (Alfa-Aesar) or (E,E,E)-geranylgeraniol (Sigma-Aldrich); pyrophosphate assays were performed at 100 μM FPP or GGPP (Sigma-Aldrich). […]
as §2

[7] = In vitro GGR reduction of farnesol, products analysed by GC-MS; set-up: key to Farnesol (C15) reduction / Farnesol (C15)-full reduction: +: activity detected; ++: activity higher than for other GGRs
Method: as §1, with “triplicate for each respective substrate and putative GGR for 1 hour at 37° C. All assays were performed at pH 7.4 in 100 mM sodium phosphate” left out
as §3, §4, §5

[8] = FIG. 1A legend, conditions not stated
[9] = 1 hr, 37° C., pH 7.4, error in brackets

B1: Ma1-GGR: geranylgeranyl reductase from Methanosarcina acetivorans #1, InterPro Q8TQQ6 (protein, UniProt Q8TQQ6 1-407, looked up)
Digeranylgeranylglycerophospho …: MKDIYDVLVIGAGPAGSIAAKTAAEKGLDVLLIEKRQEIGDPVRCAEGVNKEYLKKHVEIDNSWICADLKGSRIYSPNGTKVEMAEEISGGEVGYVLERKIFDRALAEHAAKAGAEVRVKTRATGLIIEDDFVKGARLMNLGKEYEVRAKIVIGADGVESKVGRWAGIDTSLKPIDIETCAQYLIAGADIDPEYCEFYIGNEIAPGGYVWIFPKGEGKANVGVGILGNRTGKFKPRPVDYLNNFVEKKFPNAKIVEMVFGGVPVSGSIEKTSVNGLMLVGDAARQSDPITGGGILNAMDAGKIAGEAAYEAISSGDVSLEKLEEVYEKRWRETTGHDIDMSLIVKNCFINLKDEDLDSLADSLKEVKFESMRLFDLLQALFKANKKLLWDLRVLFKDAAKEVMKNRT
For B1, the “GGPP (C20) reduction” value [1] was “+” and the “Reduction of GGPP (in words)” value ([1]; standard assay conditions) was “found to reduce GGPP”.

B2: Sa-GGR: geranylgeranyl reductase from Sulfolobus acidocaldarius, InterPro M1I414, wild type (protein, listed as Sulfolobus acidocaldarius)
chain: MKELKYDVLIIGGGFAGSSAAYQLSRRGLKILLVDSKPWNRIGDKPCGDAVSKAHFDKLGMPYPKGEELENKINGIKLYSPDMQTVWTVNGEGFELNAPLYNQRVLKEAQDRGVEIWDLTTAMKPIFEDGYVKGAVLFNRRTNEELTVYSKVVVEATGYSRSFRSKLPPELPITEDLDDKDADVAYREVLLTKEDIEDHDYLRIFIDQETSPGGYWWYFPKGKNKVNVGLGIQGGMGYPSIHEYYKKYLDKYAPDVDKSKLLVKGGALVPTRRPLYTMAWNGIIVIGDSGFTVNPVHGGGKGSAMISGYCAAKAILSAFETGDFSASGLWDMNICYVNEYGAKQASLDIFRRFLQKLSNDDINYGMKKKIIKEEDLLEASEKGDLHLSVADKAMRVISGLGRPSLLFKLKAVAESMKKIKELYLNYPRSPSSLGSWRREVDNVLTEFNKSLS
For B2, the “GPP (C10) reduction” value [2] was “+”, the “Product of GPP reduction” value [2, 8] was “H2-GPP” and the “Geranylgeraniol (C20) reduction” value [3] was “+”. For the same molecule, the “Reduced products formed from geranylgeraniol” value ([3]; 1 hour 37° C., pH 7.4) was “H2-, H4-, H6- and H8-geranylgeraniol”, the “Specific activity of enzymatic GGR reduction on geranylgeraniol (GGOH)” value [3, 9] was 50 (10) nmol terpene units reduced mg^−1 enzyme hr^−1 and the “Product of complete reduction of geranylgeraniol” value [3, 8] was “H8-GGOH”. The “Enzymatic reduction of geranylgeraniol (in words)” value ([3]; standard assay, 1 hr, 37° C., pH 7.4) was “enzymatically reduce geranylgeraniol”, the “Specific activity toward GGOH” value ([3]; standard assay, stated as lower bound) was “at least 50±10 nmol terpenoids reduced per milligram of enzyme per hour” and the “GGPP (C20) reduction” value [1] was “+”. The “Product of GGPP reduction” value [1, 8] was “H6-GGPP”, the “Product of complete reduction of geraniol” value [4] was “H4-GOH” and the “FPP (C15) reduction” value [5] was “+”. The “Product of FPP reduction” value [5, 8] was “H4-FPP”, the “Preferential / final product of FPP reduction” value ([5]; SaGGR variants, pH 5.5, 50° C., kinetic time course) was “H4-FPP” and the FPP consumption ([5]; after two hours of incubation at pH 5.5, 50° C.) was “fully consume FPP”. The “Reduction of FPP (in words)” value ([5]; standard assay conditions) was “could reduce FPP”, the “Rate of first-order substrate hydrolysis, comparison” value [6] was “occurs more quickly in SaGGR than for PfGGR” and the “Farnesol (C15) reduction” value [7] was “+”. The “Farnesol (C15)-full reduction” value [7] was “+”, the “Formation of fully reduced farnesol” value ([7]; 50° C. and pH 5.5) was “generated a modest amount of H6-FOH” and the “Reduced products formed from farnesol” value ([7]; 1 hour 37° C., pH 7.4) was “H2- and H4-farnesol”. The “Reduction of FOH to H2-FOH or H4-FOH (in words)” value ([7]; 1 hr incubation under standard assay conditions) was “found to reduce FOH”, the “Specific activity of enzymatic GGR reduction on farnesol (FOH)” value [7, 9] was 8 (1) nmol terpene units reduced mg^−1 enzyme hr^−1 and the “Product of complete reduction of farnesol” value [7, 8] was “H6-FOH”.
